The text below walks through data of article PMC6472344, “Self-organization of Plk4 regulates symmetry breaking in centriole duplication” (Nature Communications, 2019).

Positions count from the first letter of the chain named. In names and notes the source's numbering stands.

Series [1] deals with the molecule itself. Nature of the series: co-sedimentation; spin-down assay: 500 nM GST-Plk4(Kinase + L1)-His6 incubated at 30 °C for 1 h in kinase buffer (20 mM Tris pH 7.5, 300 or 500 mM NaCl, 30 μM ATP, 5 mM MgCl2, 1 mM β-mercaptoethanol), GST cut off with PreScission protease at 4 °C overnight, centrifuged at 21,500 x g for 10 min; supernatant and pellet by SDS-PAGE and CBB staining.

Series [2] concerns the molecule itself. Nature of the series: Proteostat aggregation assay (dye fluorescence); 300 nM GST-Plk4 (Kinase + L1)-His6 in 20 mM Tris pH 7.5, 300 mM NaCl, 1 mM β-mercaptoethanol, 0.1 mM MnCl2, 37 °C for 1 h with or without lambda phosphatase; fluorescence normalised to the WT.

B1: Plk4 (Kinase + L1)-His6, kinase-dead (D154A), after GST-tag cleavage (domain or fragment, human, UniProt O00444 1-585, looked up)
chain: MATCIGEKIEDFKVGNLLGKGSFAGVYRAESIHTGLEVAIKMIDKKAMYKAGMVQRVQNEVKIHCQLKHPSILELYNYFEDSNYVYLVLEMCHNGEMNRYLKNRVKPFSENEARHFMHQIITGMLYLHSHGILHRDLTLSNLLLTRNMNIKIAAFGLATQLKMPHEKHYTLCGTPNYISPEIATRSAHGLESDVWSLGCMFYTLLIGRPPFDTDTVKNTLNKVVLADYEMPSFLSIEAKDLIHQLLRRNPADRLSLSSVLDHPFMSRNSSTKSKDLGTVEDSIDSGHATISTAITASSSTSISGSLFDKRRLLIGQPLPNKMTVFPKNKSSTDFSSSGDGNSFYTQWGNQETSNSGRGRVIQDAEERPHSRYLRRAYSSDRSGTSNSQSQAKTYTMERCHSAEMLSVSKRSGGGENEERYSPTDNNANIFNFFKEKTSSSSGSFERPDNNQALSNHLCPGKTPFPFADPTPQTETVQQWFGNLQINAHLRKTTEYDSISPNRDFQGHPDLQKDTSKNAWTDTKVKKNSDASDNAHSVKQQNTMKYMTALHSKPEIIQQECVFGSDPLSEQSKTRGMEPPWGYQNR
notes: human Polo-like kinase 4 (Plk4), kinase domain and Linker 1, residues 1-585, kinase-dead; also called KD mutant; KD; source: E. coli BL21 gold (DE3), purified (glutathione sepharose, Ni-agarose); GST cut off with PreScission protease; not shown: GST, N-terminal, cleaved; His6, C-terminal, kept
Consider B1, for which, in series [1], the binding result is on record as “binds”.

B2: GST-Plk4 (Kinase + L1)-His6, wild type, dephosphorylated with lambda phosphatase (domain or fragment, human, UniProt O00444 1-585, looked up)
chain: B1 chain with A154D
notes: human Polo-like kinase 4 (Plk4), kinase domain and Linker 1, residues 1-585; The same construct as m5 after removal of its autophosphorylation by λPP; also called λPP-treated WT Plk4 fragments; source: E. coli BL21 gold (DE3), purified (glutathione sepharose, eluted with glutathione; Ni-agarose); incubated with lambda phosphatase; not shown: GST, N-terminal, kept; His6, C-terminal, kept
Turning to B2, the binding result in series [2] is given as “binds”.

B3: GST-Plk4 (Kinase + L1)-His6, kinase-dead (D154A) (domain or fragment, human, UniProt O00444 1-585, looked up)
chain: B1 chain
notes: human Polo-like kinase 4 (Plk4), kinase domain and Linker 1, residues 1-585, kinase-dead; also called KD; source: E. coli BL21 gold (DE3), purified (glutathione sepharose, eluted with glutathione; Ni-agarose); not shown: GST, N-terminal, kept; His6, C-terminal, kept
As to B3, in series [2], the binding result was “binds”.
